# Assay results reported in patent US20110002963A1 (IMMATICS BIOTECHNOLOGIES, published 2011).
# Target: T1, MHC molecule coded by the HLA-A*0201 allele (recombinant HLA-A*0201 heavy chain refolded with beta-2 … (human))
# Assay: ELISA-based MHC refolding assay
row,Binder,binding result
1,LTFGDVVAV (also called IMA-FABP7-001) [FABP7-001],binds
2,KIQEILTQV (also called IMA-IGF2BP3-001) [IGF2BP3-001],binds
3,NLDTLMTYV (also called IMA-NLGN4X-001) [NLGN4X-001],binds
4,GLWHHQTEV (also called IMA-NRCAM-001) [NRCAM-001],binds
5,AIIDGVESV (also called IMA-PTP-003) [PTP-003],binds
6,KVFAGIPTV (also called IMA-PTP-005) [PTP-005],binds
7,AMTQLLAGV (also called IMA-TNC-001) [TNC-001],binds
8,ALWAWPSEL (also called IMA-BCA-002) [BCA-002],binds
9,SLWAGVVVL (also called IMA-CHI-001) [CHI-001],binds

# Target: T1, MHC molecule coded by the HLA-A*0201 …
# Assay: tetramer production / HLA-A*0201 refolding with peptide
row,Binder,binding result
1,TFSYVDPVITSISPKYG (also called IMA-MET-005; full-length MET-005) [MET-005],no binding

# Target: T1, MHC molecule coded by the HLA-A*0201 …
# Assay: ELISA-based MHC refolding assay, recombinant HLA-A*0201 heavy chain + b2m + graded peptide
row,Binder,Kd
1,YVDPVITSI (also called MET-005 derived MET-001) [MET-001],0.14 nM
2,TMLARLASA (also called IMA-CSP-001) [CSP-001],2.05 nM
